Data reported in the RNAGym collection of RNA variant scans (doi:10.1021/acssynbio.7b00057).

B1: Pistol ribozyme (parent)
chain: GGGUCGUUGUUCCAUAAUCGCGUGGAUAUGGCACGCAAGUUUCUACCGGGCACCGUAAAUGUCCGACUGGAGCCGUUCGGGCGGCUAUAAACAGACCUCAGGCCCGAAGCGUGGCGGCACCUGCCGCCGGUGGUAAAAAAGAUCGGAAGAGCACACGUCU

Variants of: B1
Test: aptazyme ON/OFF ratio, guanine; higher = stronger switching; co-transcriptional cleavage with and without guanine

| Variant | aptazyme ON/OFF ratio |
| --- | --- |
| U7A U8G G9C U10G U11G C12U | 1.2 |
| U7A U8G G9C U10G U11G C12G | 1.19 |
| U7A U8G G9C U10G U11G C12A | 1.36 |
| U7A U8G G9U U10A U11G C12A C13A | 1.11 |
| U7A U8G G9U U10A U11G C12A C13U | 1.19 |
| U7A U8G G9U U10A U11G C12A C13G | 1.12 |
| U7A U8G G9C U10G U11G C12U C13U | 1.48 |
| U7A U8G G9C U10G U11G C12U C13A | 1.2 |
| U7A U8G G9C U10G U11G C12U C13G | 1.18 |
| U7A U8G G9C U10G U11C C12G C13A | 1.27 |
| U7A U8G G9C U10G U11C C12G C13G | 1.3 |
| U7A U8G G9C U10G U11C C12G C13U | 1.4 |
| U7A U8G G9C U11A C12U C13U | 1.46 |
| U7A U8G G9C U11A C12U C13A | 1.4 |
| U7A U8G G9C U11A C12U C13G | 1.37 |
| U7A U8G G9U U10A C12A C13U | 1.36 |
| U7A U8G G9U U10A C12A C13G | 1.28 |
| U7A U8G G9U U10A C12A C13A | 1.31 |
| U7A U8G G9C U10G C12U C13G | 1.23 |
| U7A U8G G9C U10G C12U C13A | 1.48 |
| U7A U8G G9C U10G C12U C13U | 1.38 |
| U7A U8G G9C U11G C12A C13A | 1.29 |
| U7A U8G G9C U11G C12A C13U | 1.28 |
| U7A U8G G9C U11G C12A C13G | 1.26 |

| Variant | aptazyme ON/OFF ratio |
| --- | --- |
| U7A U8G G9C U10C U11G C12A | 1.06 |
| U7A U8G G9C U10C U11G C12G | 1.16 |
| U7A U8G G9C U10C U11G C12U | 1.03 |
| U7A U8G G9U U10A C12U C13A | 1.32 |
| U7A U8G G9U U10A C12U C13G | 1.36 |
| U7A U8G G9U U10A C12U C13U | 1.31 |
| U7A U8G G9C U10A U11C C12U C13G | 1.59 |
| U7A U8G G9C U10A U11C C12U C13U | 1.23 |
| U7A U8G G9C U11A C12U | 1.53 |
| U7A U8G G9C U11A C12G | 1.34 |
| U7A U8G G9C U11A C12A | 1.73 |
| U7A U8G G9C U10G U11C C12U C13G | 1.37 |
| U7A U8G G9C U10G U11C C12U C13A | 1.31 |
| U7A U8G G9C U10G U11C C12U C13U | 1.21 |
| U7A U8G G9U C13A | 1.25 |
| U7A U8G G9U C13U | 1.96 |
| U7A U8G G9U C13G | 1.14 |
| U7A U8G G9C U10C U11C C12U | 0.975 |
| U7A U8G G9C U10C U11C C12A | 1.06 |
| U7A U8G G9C U10C U11C C12G | 1.05 |
| U7A U8G G9U U10C U11C | 1.15 |
| U7A U8G G9U U10C U11G | 1.71 |
| U7A U8G G9U U10C U11A | 3.38 |
| U7A U8G G9C U10A U11C C13G | 1.04 |

| Variant | aptazyme ON/OFF ratio |
| --- | --- |
| U7A U8G G9C U10A U11C C13U | 1.04 |
| U7A U8G G9C U10A U11C C13A | 1.04 |
| U7A U8G G9U U10C U11C C12A C13G | 1.32 |
| U7A U8G G9U U10C U11C C12A C13U | 1.2 |
| U7A U8G G9U U10C U11C C12A C13A | 1.21 |
| U7A U8G G9U U10A C12G C13G | 1.47 |
| U7A U8G G9U U10A C12G C13U | 1.36 |
| U7A U8G G9U U10A C12G C13A | 1.09 |
| U7A U8G G9C U10G U11C C12U | 1.07 |
| U7A U8G G9C U10G U11C C12A | 1.47 |
| U7A U8G G9C U10G U11C C12G | 1.3 |
| U7A U8G G9U U10C U11G C12A C13A | 1.16 |
| U7A U8G G9U U10C U11G C12A C13U | 1.45 |
| U7A U8G G9U U10C U11G C12A C13G | 1.41 |
| U7A U8G G9U U10A U11C C12U C13G | 1.49 |
| U7A U8G G9U U10A U11C C12U C13A | 1.21 |
| U7A U8G G9U U10A U11C C12U C13U | 1.2 |
| U7A U8G G9C U10A U11G C12A C13G | 1.18 |
| U7A U8G G9C U10A U11G C12A C13U | 1.16 |
| U7A U8G G9C U10A U11G C12A C13A | 1.2 |
| U7A U8G G9U U10A U11A C12A | 1.2 |
| U7A U8G G9U U10A U11A C12U | 1.32 |
| U7A U8G G9U U10A U11A C12G | 1.33 |
| U7A U8G G9U U10A U11C C12G C13U | 1.4 |

| Variant | aptazyme ON/OFF ratio |
| --- | --- |
| U7A U8G G9U U10A U11C C12G C13A | 1.14 |
| U7A U8G G9U U10A U11C C12G C13G | 1.27 |
| U7A U8G G9C U10G U11A C12G C13A | 1.33 |
| U7A U8G G9C U10G U11A C12G C13U | 1.46 |
| U7A U8G G9C U10G U11A C12G C13G | 1.39 |
| U7A U8G G9C U11C C12G C13U | 1.37 |
| U7A U8G G9C U11C C12G C13A | 1.19 |
| U7A U8G G9C U11C C12G C13G | 1.11 |
| U7A U8G G9C U11C C12G | 1.65 |
| U7A U8G G9C U11C C12U | 1.49 |
| U7A U8G G9C U11C C12A | 2.15 |
| U7A U8G G9C U10G U11A C12A | 1.42 |
| U7A U8G G9C U10G U11A C12G | 1.39 |
| U7A U8G G9C U10G U11A C12U | 1.2 |
| U7A U8G G9U U10C U11C C13U | 1.07 |
| U7A U8G G9U U10C U11C C13A | 1.04 |
| U7A U8G G9U U10C U11C C13G | 1.12 |
| U7A U8G G9C U10C C12U C13A | 1.14 |
| U7A U8G G9C U10C C12U C13U | 1.38 |
| U7A U8G G9C U10C C12U C13G | 1.17 |
| U7A U8G G9C U10G U11G C13A | 1.19 |
| U7A U8G G9C U10G U11G C13G | 1.21 |
| U7A U8G G9C U10G U11G C13U | 1.31 |
| U7A U8G G9U U10C U11A C12A | 1.63 |

| Variant | aptazyme ON/OFF ratio |
| --- | --- |
| U7A U8G G9U U10C U11A C12G | 1.61 |
| U7A U8G G9U U10C U11A C12U | 1.72 |
| U7A U8G G9C U10C U11A C13U | 1.22 |
| U7A U8G G9C U10C U11A C13G | 1.22 |
| U7A U8G G9C U10C U11A C13A | 1.16 |
| U7A U8G G9C U10G U11G C12A C13A | 1.18 |
| U7A U8G G9C U10G U11G C12A C13U | 1.22 |
| U7A U8G G9C U10G U11G C12A C13G | 1.16 |
| U7A U8G G9C U10C U11C | 0.976 |
| U7A U8G G9C U10C U11A | 1.03 |
| U7A U8G G9C U10C U11G | 1.26 |
| U7A U8G G9C U11A C12G C13U | 1.28 |
| U7A U8G G9C U11A C12G C13A | 1.11 |
| U7A U8G G9C U11A C12G C13G | 1.35 |
| U7A U8G G9C U10A U11G C12G C13U | 1.25 |
| U7A U8G G9C U10A U11G C12G C13A | 1.14 |
| U7A U8G G9C U10A U11G C12G C13G | 1.72 |
| U7A U8G G9C U10G U11C C13A | 1.1 |
| U7A U8G G9C U10G U11C C13G | 1.08 |
| U7A U8G G9C U10G U11C C13U | 1.04 |
| U7A U8G G9C U10C U11A C12A C13U | 1.18 |
| U7A U8G G9C U10C U11A C12A C13G | 1.1 |
| U7A U8G G9C U10C U11A C12A C13A | 1.17 |
| U7A U8G G9U U10C C12G | 1.24 |

| Variant | aptazyme ON/OFF ratio |
| --- | --- |
| U7A U8G G9U U10C C12A | 1.41 |
| U7A U8G G9U U10C C12U | 1.66 |
| U7A U8G G9C U10G U11A C13G | 1.25 |
| U7A U8G G9C U10G U11A C13U | 1.15 |
| U7A U8G G9C U10G U11A C13A | 1.11 |
| U7A U8G G9U U10C U11C C12U C13A | 1.14 |
| U7A U8G G9U U10C U11C C12U C13U | 1.23 |
| U7A U8G G9U U10C U11C C12U C13G | 1.2 |
| U7A U8G G9C U10C | 2.58 |
| U7A U8G G9C U10G | 1.46 |
| U7A U8G G9C U10A U11G | 1.9 |
| U7A U8G G9C U10G U11A C12U C13A | 1.33 |
| U7A U8G G9C U10G U11A C12U C13G | 1.23 |
| U7A U8G G9C U10G U11A C12U C13U | 1.42 |
| U7A U8G G9U U10A U11C | 1.06 |
| U7A U8G G9U U10A U11A | 2.58 |
| U7A U8G G9U U10A U11G | 2.03 |
| U7A U8G G9U C12U C13G | 1.17 |
| U7A U8G G9U C12U C13U | 1.26 |
| U7A U8G G9U C12U C13A | 1.64 |
| U7A U8G G9C U10A U11G C12U | 1.08 |
| U7A U8G G9C U10A U11G C12G | 1.35 |
| U7A U8G G9C U10A U11G C12A | 1.07 |
| U7A U8G G9C U10A U11G C12U C13G | 1.26 |

| Variant | aptazyme ON/OFF ratio |
| --- | --- |
| U7A U8G G9C U10A U11G C12U C13U | 1.35 |
| U7A U8G G9C U10A U11G C12U C13A | 1.21 |
| U7A U8G G9C U11A | 2.34 |
| U7A U8G G9C U11C | 1.35 |
| U7A U8G G9C U11G | 1.57 |
| U7A U8G G9U U10A U11A C12U C13G | 1.24 |
| U7A U8G G9U U10A U11A C12U C13A | 1.26 |
| U7A U8G G9U U10A U11A C12U C13U | 1.2 |
| U7A U8G G9C U10G C12G C13G | 1.17 |
| U7A U8G G9C U10G C12G C13A | 1.3 |
| U7A U8G G9C U10G C12G C13U | 1.44 |
| U7A U8G G9C U11G C12U | 1.43 |
| U7A U8G G9C U11G C12G | 1.66 |
| U7A U8G G9C U11G C12A | 1.67 |
| U7A U8G G9U U10A C12A | 1.45 |
| U7A U8G G9U U10A C12U | 1.4 |
| U7A U8G G9U U10A C12G | 1.45 |
| U7A U8G G9C U10C U11C C13G | 1.02 |
| U7A U8G G9C U10C U11C C13U | 1.04 |
| U7A U8G G9C U10C U11C C13A | 0.995 |
| U7A U8G G9U U10A C13G | 1.12 |
| U7A U8G G9U U10A C13U | 1.23 |
| U7A U8G G9U U10A C13A | 1.36 |
